Source: patent publication US20220098307A1 (WUHAN YZY BIOPHARMA, published 2022)

Experiments:
human CEA = molecular target: T1, human CEA (human, UniProt P06731 35-685); assay: flow cytometry, human tumor cells (CEA+)
T1 sequence: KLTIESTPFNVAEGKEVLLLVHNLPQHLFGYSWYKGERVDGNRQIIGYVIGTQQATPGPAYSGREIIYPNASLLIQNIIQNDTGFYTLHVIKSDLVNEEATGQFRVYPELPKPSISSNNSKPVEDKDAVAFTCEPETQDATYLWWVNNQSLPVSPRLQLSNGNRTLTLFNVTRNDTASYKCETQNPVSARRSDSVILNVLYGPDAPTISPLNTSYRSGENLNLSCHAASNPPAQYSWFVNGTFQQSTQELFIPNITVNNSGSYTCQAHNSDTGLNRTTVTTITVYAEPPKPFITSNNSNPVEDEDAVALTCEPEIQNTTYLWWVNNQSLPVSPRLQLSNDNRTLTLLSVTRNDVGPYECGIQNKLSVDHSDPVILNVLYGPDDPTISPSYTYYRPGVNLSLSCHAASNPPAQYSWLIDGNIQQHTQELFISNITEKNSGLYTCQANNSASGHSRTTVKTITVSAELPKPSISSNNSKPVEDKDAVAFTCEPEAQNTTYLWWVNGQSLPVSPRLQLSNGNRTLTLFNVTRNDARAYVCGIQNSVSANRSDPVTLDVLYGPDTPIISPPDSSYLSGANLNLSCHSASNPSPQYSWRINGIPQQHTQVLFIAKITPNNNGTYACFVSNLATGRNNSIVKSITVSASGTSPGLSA
Excerpt: (§1) 1) Cell preparation: T cells isolated from CD3-positive human whole blood were used for a CD3 end affinity detection of multifunctional antibody molecule; positive tumor cells of corresponding antigen were used for detecting affinity of tumor antigen; for example, CD38-positive MM. 1S cells (purchased from the Cell Resource Center of Shanghai Institutes for Biological Sciences, Chinese Academy of Sciences) or RPMI 8226 cells (purchased from the Cell Resource Center of Shanghai Institutes for Biological Sciences, Chinese Academy of Sciences) were used for CD38 antigen detection, and PD-L1 positive H358 cells (purchased from the Cell Resource Center of Shanghai Institutes for Biological Sciences, Chinese Academy of Sciences) were used for PD-L1 antigen detection, and so on. The cells were resuspended with 1% FBS-PBS, adjusted to a density of 4×10⁶/ml, and 50 μl of cells were taken from each well, and then plated at 2×10⁵ per well. Cell plating was operated on ice
(§2) 2) Addition of the antibody: according to the experimental design, the antibody was diluted gradually, and dilution of antibody was operated on ice. For example, the initial concentration of antibody for dilution was 3000 nM, and the antibody was diluted by 3 times with 11 concentration gradients. The diluted antibody was added to a cell well at 50 μl per well, mixed well, and shaked and incubated at 4° C. 1100 rpm/min for 2 h; after washing, the cells were resuspend in 1% FBS-PBS, and a diluted secondary antibody PE anti-human IgG FC (Biolegend, 409304) was added with a final concentration of 8 ug/ml and a volume of 50 μl/well. At the same time, a well only added with cells and secondary antibody was set as a control, the components were mixed well, and incubated under shaking at 1100 rpm/min at 4° C. for 1 h;
(§3) 5) Data analysis: the data was analyzed by a flow analysis software FlowJo 7.6 thereby obtaining an average fluorescence intensity of the specific antibody concentration, plotted by a Graphpad Prism 5 with the antibody concentration (nM) as an abscissa and the average fluorescence intensity as an ordinate; the EC50 value was calculated by the method of One site—Specific binding, and the EC50 value indicated the cell affinity of the antibody to the corresponding target antigen.

Human CD3ε = molecular target: T2, Human CD3ε (human, UniProt P07766 23-126); assay: flow cytometry, human T cells
T2 construct: CD3 on T cells isolated from human whole blood
Excerpt: as §1, §2, §3

Binder	EC50 (human CEA)	EC50 (Human CD3ε)
CEA-M3-G2 (bispecific antibody, structure 3; CEA x CD3; CH2 G2CH2) chain 1: QVQLVQSGSELKKPGASVKVSCKASGYTFTVFGMNWVRQAPGQGLEWMGWINTKTGEATYVEEFKGRFVFSLDTSVSTAYLQISSLKADDTAVYYCARWDFYDYVEAMDYWGQGTTVTVSSASTKGPSVFPLAPSSKSTSGGTAALGCLVKDYFPEPVTVSWNSGALTSGVHTFPAVLQSSGLYSLSSVVTVPSSSLGTQTYICNVNHKPSNTKVDKKVEPKSCGGGGSGGGGSQVQLVESGGGVVQPGRSLRLSCAASGFTFSTYAMNWVRQAPGKGLEWVARIRSKYNNYATYYADSVKDRFTISRDDSKNTLYLQMNSLRAEDTAVYYCARHGNFGNSYVSWFAYWGQGTLVTVSSASVAAPSVFIFPPSDEQLKSGTASVVCLLNNFYPREAKVQWKVDNALQSGNSQESVTEQDSKDSTYSLSSTLTLSKADYEKHKVYACEVTHQGLSSPVTKSFNRGECDKTHTCPPCPAPPVAGPSVFLFPPKPKDTLMISRTPEVTCVVVDVSHEDPEVQFNWYVDGVEVHNAKTKPREEQFNSTFRVVSVLTVVHQDWLNGKEYKCKVSNKGLPAPIEKTISKTKGQPREPQVYTLPPCRDELTKNQVSLWCLVKGFYPSDIAVEWESNGQPENNYKTTPPVLDSDGSFFLYSKLTVDKSRWQQGNVFSCSVMHEALHNHYTQKSLSLSPGK chain 2: QTVVTQEPSLTVSPGGTVTLTCRSSTGAVTTSNYANWVQQKPGQAPRGLIGGTNKRAPGVPARFSGSLLGGKAALTLSGVQPEDEAEYYCALWYSNLWVFGGGTKVEIKSSASTKGPSVFPLAPSSKSTSGGTAALGCLVKDYFPEPVTVSWNSGALTSGVHTFPAVLQSSGLYSLSSVVTVPSSSLGTQTYICNVNHKPSNTKVDKKVEPKSC heavy: QVQLVQSGSELKKPGASVKVSCKASGYTFTVFGMNWVRQAPGQGLEWMGWINTKTGEATYVEEFKGRFVFSLDTSVSTAYLQISSLKADDTAVYYCARWDFYDYVEAMDYWGQGTTVTVSSASTKGPSVFPLAPSSKSTSGGTAALGCLVKDYFPEPVTVSWNSGALTSGVHTFPAVLQSSGLYSLSSVVTVPSSSLGTQTYICNVNHKPSNTKVDKKVEPKSCDKTHTCPPCPAPPVAGPSVFLFPPKPKDTLMISRTPEVTCVVVDVSHEDPEVQFNWYVDGVEVHNAKTKPREEQFNSTFRVVSVLTVVHQDWLNGKEYKCKVSNKGLPAPIEKTISKTKGQPREPQVCTLPPSRDELTKNQVSLSCAVKGFYPSDIAVEWESNGQPENNYKTTPPVLDSDGSFFLVSKLTVDKSRWQQGNVFSCSVMHEALHNRFTQKSLSLSPGK light: DIQMTQSPSSLSASVGDRVTITCKASQNVGTNVAWYQQKPGKAPKLLIYSASYRYSGVPSRFSGSGSGTDFTFTISSLQPEDIATYYCHQYYTYPLFTFGQGTKVEIKRTVAAPSVFIFPPSDEQLKSGTASVVCLLNNFYPREAKVQWKVDNALQSGNSQESVTEQDSKDSTYSLSSTLTLSKADYEKHKVYACEVTHQGLSSPVTKSFNRGEC	36.3 nM	638 nM
CEA-M3-AG2 (bispecific antibody, structure 3; CEA x CD3; CH2 AG2CH2) chain 1: QVQLVQSGSELKKPGASVKVSCKASGYTFTVFGMNWVRQAPGQGLEWMGWINTKTGEATYVEEFKGRFVFSLDTSVSTAYLQISSLKADDTAVYYCARWDFYDYVEAMDYWGQGTTVTVSSASTKGPSVFPLAPSSKSTSGGTAALGCLVKDYFPEPVTVSWNSGALTSGVHTFPAVLQSSGLYSLSSVVTVPSSSLGTQTYICNVNHKPSNTKVDKKVEPKSCGGGGSGGGGSQVQLVESGGGVVQPGRSLRLSCAASGFTFSTYAMNWVRQAPGKGLEWVARIRSKYNNYATYYADSVKDRFTISRDDSKNTLYLQMNSLRAEDTAVYYCARHGNFGNSYVSWFAYWGQGTLVTVSSASVAAPSVFIFPPSDEQLKSGTASVVCLLNNFYPREAKVQWKVDNALQSGNSQESVTEQDSKDSTYSLSSTLTLSKADYEKHKVYACEVTHQGLSSPVTKSFNRGECDKTHTCPPAPAPPVAGPSVFLFPPKPKDTLMISRTPEVTCVVVDVSHEDPEVQFNWYVDGVEVHNAKTKPREEQFNSTFRVVSVLTVVHQDWLNGKEYKCKVSNKGLPAPIEKTISKTKGQPREPQVYTLPPCRDELTKNQVSLWCLVKGFYPSDIAVEWESNGQPENNYKTTPPVLDSDGSFFLYSKLTVDKSRWQQGNVFSCSVMHEALHNHYTQKSLSLSPGK chain 2: QTVVTQEPSLTVSPGGTVTLTCRSSTGAVTTSNYANWVQQKPGQAPRGLIGGTNKRAPGVPARFSGSLLGGKAALTLSGVQPEDEAEYYCALWYSNLWVFGGGTKVEIKSSASTKGPSVFPLAPSSKSTSGGTAALGCLVKDYFPEPVTVSWNSGALTSGVHTFPAVLQSSGLYSLSSVVTVPSSSLGTQTYICNVNHKPSNTKVDKKVEPKSC heavy: QVQLVQSGSELKKPGASVKVSCKASGYTFTVFGMNWVRQAPGQGLEWMGWINTKTGEATYVEEFKGRFVFSLDTSVSTAYLQISSLKADDTAVYYCARWDFYDYVEAMDYWGQGTTVTVSSASTKGPSVFPLAPSSKSTSGGTAALGCLVKDYFPEPVTVSWNSGALTSGVHTFPAVLQSSGLYSLSSVVTVPSSSLGTQTYICNVNHKPSNTKVDKKVEPKSCDKTHTCPPAPAPPVAGPSVFLFPPKPKDTLMISRTPEVTCVVVDVSHEDPEVQFNWYVDGVEVHNAKTKPREEQFNSTFRVVSVLTVVHQDWLNGKEYKCKVSNKGLPAPIEKTISKTKGQPREPQVCTLPPSRDELTKNQVSLSCAVKGFYPSDIAVEWESNGQPENNYKTTPPVLDSDGSFFLVSKLTVDKSRWQQGNVFSCSVMHEALHNRFTQKSLSLSPGK light: DIQMTQSPSSLSASVGDRVTITCKASQNVGTNVAWYQQKPGKAPKLLIYSASYRYSGVPSRFSGSGSGTDFTFTISSLQPEDIATYYCHQYYTYPLFTFGQGTKVEIKRTVAAPSVFIFPPSDEQLKSGTASVVCLLNNFYPREAKVQWKVDNALQSGNSQESVTEQDSKDSTYSLSSTLTLSKADYEKHKVYACEVTHQGLSSPVTKSFNRGEC	38.1 nM	602 nM
